The source of these data is patent US9205136B2, “Human aminoacyl-tRNA synthetase polypeptides useful for the regulation of angiogenesis” (THE SCRIPPS RESEARCH INSTITUTE, priority 2000, dated 2015).

For one test, the system named is chick CAM. As to the kind of experiment: Inhibition of VEGF165-induced or mini TyrRS-induced angiogenesis in chick CAM. Type of test: in vivo. As to conditions: 3 μg inhibitor; for inhibition of VEGF165-induced angiogenesis in chick CAM: 25 ng VEGF165, 72 hours; for inhibition of mini TyrRS-induced angiogenesis in chick CAM: 250 ng mini TyrRS, 72 hours. How it is done: In vivo angiogenesis assays were conducted in chick chorioallantoic membrane (CAM) (Nicolaou et al., 1998, Bioorg. Med. Chem. 6:1185-208). Ten-day-old chick embryos were purchased from Mcintyre Poultry (Lakeside, Calif.) and were incubated at 37° C. and 70% humidity. A small hole was made with a small crafts drill (Dremel, Emerson Electric, Racine, Wis.) directly over the air sac at the end of the egg. The embryos were candled to determine a location to drill a second hole directly over embryonic blood vessels. […] A window was cut in the eggshell over the dropped CAM, exposing the CAM to direct access for experimental manipulation. Cortisone acetate-treated 5 mm filter disks were soaked with a particular protein sample (25 ng of VEGF165 or 250 ng of a given TyrRS molecule) and the filter disks added directly to the CAMs, which were relatively devoid of preexisting blood vessels. The windows were sealed with sterile tape and incubated at 37° C. At 0, 24, and 48 hours following incubation, 3 μg of […] (IP-10) (R & D Systems, Minneapolis, Minn.) was topically applied to the filter disks. After 72 hours, the CAM tissue associated with the filter disk was harvested and quantified using a stereomicroscope. Angiogenesis was assessed as the number of visible blood vessel branch points within the defined area of the filter disks. Each determination shown in FIG. 17 represents the mean from 5-8 embryos.
The angiostatic activity of human full-length TrpRS and human mini TrpRS was also analyzed in in vivo angiogenesis assays conducted in chick CAM. In vivo angiogenesis assays were performed as described in Example 12 with 3 μg of full-length TrpRS or mini TrpRS added to VEGF165-induced or mini TyrRS-induced CAM tissue.

In test [1] the test system is HUVEC. As to the kind of experiment: Inhibition of VEGF165-induced cell proliferation. Type of test: cell-based, human. As to conditions: 2 μM TrpRS, 2 nM VEGF165, 72 hours. How it is done:
The angiostatic activity of TrpRS was first evaluated in experiments testing the ability of human full-length TrpRS and human mini TrpRS to inhibit human VEGF165-induced cell proliferation. Tissue culture-treated 96-well plates (Corning Costar Corp., Cambridge, Mass.) were coated with 0.1% gelatin (Sigma) overnight. Cells were then seeded in the gelatinized plates at a density of 5×10^3 cells per well in DMEM medium (Gibco-BRL) containing heat-inactivated fetal bovine serum (FBS) (10%, Sigma) and penicillin/streptomycin (100 units/mL-100 μg/mL, Sigma). The following day, the cells were treated with 2 μM of a given TrpRS in the presence of 2 nM VEGF165. After 72 hours of incubation, assays were performed by using the […] 96® aqueous one-solution cell proliferation assay kit (Promega, Madison, Wis.). Results of the inhibition assay are shown in FIG. 18 as the percentage of net proliferation of VEGF165. Each determination shown represents the mean of five experiments.

The subject of test [2] is HUVEC. In words: Inhibition of VEGF165-induced or mini TyrRS-induced HUVEC migration. Type of test: cell-based, human. The settings on record: for inhibition of VEGF165-induced HUVEC chemotaxis / inhibition of mini TyrRS-induced HUVEC chemotaxis: 500 nM TrpRS; for inhibition of VEGF165-induced HUVEC chemotaxis: 0.5 nM VEGF165; for inhibition of mini TyrRS-induced HUVEC chemotaxis: 50 nM mini TyrRS; for inhibition of HUVEC migration: as described in Example 14, inducer not stated. How it is done: Cell migration assays were performed using the modified Boyden chamber (6.5 mm Transwells) with polycarbonate membranes (8.0 μm pore size) (Costar Corp., Cambridge, Mass.) (Masood et al., 1999, Blood 93:1038-44). Wells were coated overnight with 25 μg/mL human fibronectin (Biosource International, Camarillo, Calif.) in PBS and then allowed to air-dry. HUVECs were suspended in Dulbecco's modified Eagle's medium (DMEM) (Gibco-BRL, Gaithersburg, Md.) containing 0.1% BSA (Sigma) and 2×10^5 cells per well were added to the upper chamber. The chemotactic stimulus (50 nM of a given TyrRS molecule or 0.5 nM of human vascular endothelial growth factor-165 (VEGF165) (Biosource International, Camarillo, Calif.)) was placed in the lower chamber, and the cells were allowed to migrate for 6 hours at 37° C. in a 6% CO2 incubator. After incubation, non-migrant cells were removed from the upper face of the Transwell membrane with a cotton swab and migrant cells, those attached to the lower face, were fixed in methanol and visualized with the HEMACOLOR® stain set (EM Diagnostic Systems, Gibbstown, N.J.). Migrating cells were counted in high-power fields (HPFs). HUVECs were suspended in media with the inhibitor for 30 minutes before placement in the chamber. Each determination shown in FIG. 16 represents the average of nine HPF measurements.
The angiostatic activity of TrpRS was next evaluated in experiments testing the ability of human full-length TrpRS and human mini TrpRS to inhibit human VEGF165-induced or human mini TyrRS-induced cell migration. Cell migration assays were performed as described in Example 11 with full-length TrpRS or mini TrpRS added to VEGF165-induced or mini TyrRS-induced HUVEC samples. HUVEC samples were treated with 0.5 nM VEGF165, 50 nM mini TyrRS, and 500 nM of a given TrpRS. Four measurements of chemotaxis were done for each protein. Each determination shown in FIG. 19 represents the average of nine HPF measurements. […] In contrast, human full-length TrpRS had no effect on VEGF165-induced or mini TyrRS-induced HUVEC chemotaxis.

B1: mini TrpRS: truncated TrpRS, residues 48-471 of full-length TrpRS (protein)
chain: MSYKAAAGEDYKADCPPGNPAPTSNHGPDATEAEEDFVDPWTVQTSSAKGIDYDKLIVRFGSSKIDKELINRIERATGQRPHHFLRRGIFFSHRDMNQVLDAYENKKPFYLYTGRGPSSEAMHVGHLIPFIFTKWLQDVFNVPLVIQMTDDEKYLWKDLTLDQAYGDAVENAKDIIACGFDINKTFIFSDLDYMGMSSGFYKNVVKIQKHVTFNQVKGIFGFTDSDCIGKISFPAIQAAPSFSNSFPQIFRDRTDIQCLIPCAIDQDPYFRMTRDVAPRIGYPKPALLHSTFFPALQGAQTKMSASDPNSSIFLTDTAKQIKTKVNKHAFSGGRDTIEEHRQFGGNCDVDVSFMYLTFFLEDDDKLEQIRKDYTSGAMLTGELKKALIEVLQPLIAEHQARRKEVTDEIVKEFMTPRKLSFDFQKLAAALEHHHHHH
modifications: His6 tag; Human mini TrpRS in pET20B
notes: truncated TrpRS, residues 48-471 of full-length TrpRS
Take B1: in the test with chick CAM, the “inhibition of VEGF165-induced angiogenesis in chick CAM” value is given as “inhibited” and the “inhibition of mini TyrRS-induced angiogenesis in chick CAM” value is on record as “inhibited”. In the test on HUVEC [1], the “inhibition of VEGF165-induced cell proliferation” value was “able to inhibit human VEGF165-induced cell proliferation”. Moreover, in the test on HUVEC [2], the “inhibition of VEGF165-induced HUVEC chemotaxis” value is listed as “inhibited” and the “inhibition of mini TyrRS-induced HUVEC chemotaxis” value is listed as “inhibited”.

B2: inactive TrpRS: minor PMN elastase fragment of TrpRS, amino-terminal residue at position 94 of full-length TrpRS (protein)
chain: MSAKGIDYDKLIVRFGSSKIDKELINRIERATGQRPHHFLRRGIFFSHRDMNQVLDAYENKKPFYLYTGRGPSSEAMHVGHLIPFIFTKWLQDVFNVPLVIQMTDDEKYLWKDLTLDQAYGDAVENAKDIIACGFDINKTFIFSDLDYMGMSSGFYKNVVKIQKHVTFNQVKGIFGFTDSDCIGKISFPAIQAAPSFSNSFPQIFRDRTDIQCLIPCAIDQDPYFRMTRDVAPRIGYPKPALLHSTFFPALQGAQTKMSASDPNSSIFLTDTAKQIKTKVNKHAFSGGRDTIEEHRQFGGNCDVDVSFMYLTFFLEDDDKLEQIRKDYTSGAMLTGELKKALIEVLQPLIAEHQARRKEVTDEIVKEFMTPRKLSFDFQKLAAALEHHHHHH
modifications: His6 tag; Human inactive TrpRS in pET20B
notes: minor PMN elastase fragment of TrpRS, amino-terminal residue at position 94 of full-length TrpRS
For B2, in the test with chick CAM, the “inhibition of VEGF165-induced angiogenesis in chick CAM” value was “did not exhibit angiostatic activity” and the “inhibition of mini TyrRS-induced angiogenesis in chick CAM” value is given as “did not exhibit angiostatic activity”. In addition, the “inhibition of VEGF165-induced cell proliferation” value in the test with HUVEC [1] is recorded as “did not exhibit angiostatic activity”. The “inhibition of HUVEC migration” value with HUVEC [2] was “did not exhibit angiostatic activity”.

B3: supermini TrpRS: residues 71-471 of full-length TrpRS, major PMN elastase fragment (protein)
chain: MSNHGPDATEAEEDFVDPWTVQTSSAKGIDYDKLIVRFGSSKIDKELINRIERATGQRPHHFLRRGIFFSHRDMNQVLDAYENKKPFYLYTGRGPSSEAMHVGHLIPFIFTKWLQDVFNVPLVIQMTDDEKYLWKDLTLDQAYGDAVENAKDIIACGFDINKTFIFSDLDYMGMSSGFYKNVVKIQKHVTFNQVKGIFGFTDSDCIGKISFPAIQAAPSFSNSFPQIFRDRTDIQCLIPCAIDQDPYFRMTRDVAPRIGYPKPALLHSTFFPALQGAQTKMSASDPNSSIFLTDTAKQIKTKVNKHAFSGGRDTIEEHRQFGGNCDVDVSFMYLTFFLEDDDKLEQIRKDYTSGAMLTGELKKALIEVLQPLIAEHQARRKEVTDEIVKEFMTPRKLSFDFQKLAAALEHHHHHH
modifications: His6 tag; Human supermini TrpRS in pET20B
notes: residues 71-471 of full-length TrpRS, major PMN elastase fragment
As for B3, in the test with chick CAM, the “inhibition of VEGF165-induced angiogenesis in chick CAM” value was “capable of inhibiting” and the “inhibition of mini TyrRS-induced angiogenesis in chick CAM” value was “capable of inhibiting”. Besides, the “inhibition of VEGF165-induced cell proliferation” value in the test on HUVEC [1] is “capable of inhibiting HUVEC proliferation and migration”. Also, the “inhibition of HUVEC migration” value with HUVEC [2] was “capable of inhibiting HUVEC proliferation and migration”.

B4: full-length TrpRS: recombinant human tryptophanyl-tRNA synthetase, 471 amino acid residues (protein)
chain: MPNSEPASLLELFNSIATQGELVRSLKAGNASKDEIDSAVKMLVSLKMSYKAAAGEDYKADCPPGNPAPTSNHGPDATEAEEDFVDPWTVQTSSAKGIDYDKLIVRFGSSKIDKELINRIERATGQRPHHFLRRGIFFSHRDMNQVLDAYENKKPFYLYTGRGPSSEAMHVGHLIPFIFTKWLQDVFNVPLVIQMTDDEKYLWKDLTLDQAYGDAVENAKDIIACGFDINKTFIFSDLDYMGMSSGFYKNVVKIQKHVTFNQVKGIFGFTDSDCIGKISFPAIQAAPSFSNSFPQIFRDRTDIQCLIPCAIDQDPYFRMTRDVAPRIGYPKPALLHSTFFPALQGAQTKMSASDPNSSIFLTDTAKQIKTKVNKHAFSGGRDTIEEHRQFGGNCDVDVSFMYLTFFLEDDDKLEQIRKDYTSGAMLTGELKKALIEVLQPLIAEHQARRKEVTDEIVKEFMTPRKLSFDFQKLAAALEHHHHHH
modifications: His6 tag; Human full-length TrpRS in pET20B
notes: recombinant human tryptophanyl-tRNA synthetase, 471 amino acid residues
For the molecule B4, in the test on chick CAM, the “inhibition of VEGF165-induced angiogenesis in chick CAM” value is on record as “no observable angiostatic activity” and the “inhibition of mini TyrRS-induced angiogenesis in chick CAM” value is reported as “no observable angiostatic activity”. Also, the “inhibition of VEGF165-induced cell proliferation” value in the test on HUVEC [1] is “exhibited no angiostatic activity”. For the same molecule, in the test with HUVEC [2], the “inhibition of VEGF165-induced HUVEC chemotaxis” value is reported as “had no effect” and the “inhibition of mini TyrRS-induced HUVEC chemotaxis” value is listed as “had no effect”.
